Test system: Escherichia coli TOP10
Experiment: shrunken log2 fold change of peptide-encoding DNA abundance (4.5 h post-induction vs induction); higher = less antimicrobial activity (less host growth inhibition)
Details: time post-induction: 4.5 h; library: site-saturation at positions 5, 18, 19, 20
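Further: peptides expressed intracellularly from a pBAD plasmid library in pooled LB shake-flask culture, induced with 0.3% L-arabinose, DNA abundance read by NGS, three biological replicates, DESeq2 with apeglm shrinkage.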

| Sequence | shrunken log2 fold change |
| --- | --- |
| RRIRKRPPRLPRPRPRPDTRPRP | 0.0202 |
| RRIRCRPPRLPRPRPRPPGKPRP | 0.141 |
| RRIRQRPPRLPRPRPRPHIHPRP | -0.476 |
| RRIRVRPPRLPRPRPRPFFFPRP | 0.151 |
| RRIRARPPRLPRPRPRPYEHPRP | -0.25 |
| RRIRVRPPRLPRPRPRPSPTPRP | 0.0219 |
| RRIRGRPPRLPRPRPRPPTFPRP | 0.572 |
| RRIRSRPPRLPRPRPRPVWPPRP | 0.434 |
| RRIRLRPPRLPRPRPRPWEEPRP | -0.0678 |
| RRIRTRPPRLPRPRPRPMYCPRP | -0.873 |
| RRIRCRPPRLPRPRPRPVKGPRP | -0.261 |
| RRIRPRPPRLPRPRPRPVIQPRP | -0.203 |
| RRIRFRPPRLPRPRPRPKDPPRP | 0.216 |
| RRIRGRPPRLPRPRPRPIFSPRP | 0.312 |
| RRIRFRPPRLPRPRPRPYKRPRP | -0.827 |
| RRIRERPPRLPRPRPRPNEGPRP | -0.0857 |
| RRIRMRPPRLPRPRPRPFYRPRP | -0.0105 |
| RRIRFRPPRLPRPRPRPKNVPRP | 0.04 |
| RRIRWRPPRLPRPRPRPMTRPRP | 0.0972 |
| RRIRRRPPRLPRPRPRPYCEPRP | -0.102 |
| RRIRLRPPRLPRPRPRPISMPRP | -0.801 |
| RRIRYRPPRLPRPRPRPHIYPRP | -0.725 |

| Sequence | shrunken log2 fold change |
| --- | --- |
| RRIRYRPPRLPRPRPRPDEAPRP | 0.033 |
| RRIRPRPPRLPRPRPRPLQWPRP | -0.037 |
| RRIRMRPPRLPRPRPRPWVVPRP | 0.346 |
| RRIRCRPPRLPRPRPRPSRIPRP | -0.562 |
| RRIRCRPPRLPRPRPRPCFLPRP | -0.622 |
| RRIRIRPPRLPRPRPRPWWCPRP | -0.196 |
| RRIRWRPPRLPRPRPRPVPNPRP | 0.0838 |
| RRIRYRPPRLPRPRPRPGDWPRP | 0.337 |
| RRIRVRPPRLPRPRPRPAFTPRP | -0.124 |
| RRIRIRPPRLPRPRPRPFDNPRP | -1.1 |
| RRIRIRPPRLPRPRPRPCFPPRP | -0.569 |
| RRIRWRPPRLPRPRPRPKMHPRP | 0.386 |
| RRIRKRPPRLPRPRPRPIVFPRP | -0.0542 |
| RRIRNRPPRLPRPRPRPWFRPRP | 0.0475 |
| RRIRNRPPRLPRPRPRPSELPRP | -0.135 |
| RRIRKRPPRLPRPRPRPEDPPRP | 2.99 |
| RRIRFRPPRLPRPRPRPMEMPRP | -0.0294 |
| RRIRDRPPRLPRPRPRPRYAPRP | 0.215 |
| RRIRPRPPRLPRPRPRPWNGPRP | 0.0165 |
| RRIRMRPPRLPRPRPRPHYEPRP | -0.0284 |
| RRIRLRPPRLPRPRPRPVSGPRP | 0.525 |
| RRIRKRPPRLPRPRPRPYHYPRP | 0.00414 |

| Sequence | shrunken log2 fold change |
| --- | --- |
| RRIRWRPPRLPRPRPRPTITPRP | -0.335 |
| RRIRVRPPRLPRPRPRPQTGPRP | -0.0393 |
| RRIRQRPPRLPRPRPRPITTPRP | -0.0809 |
| RRIRQRPPRLPRPRPRPIWAPRP | -0.0792 |
| RRIRLRPPRLPRPRPRPCHWPRP | -0.11 |
| RRIRCRPPRLPRPRPRPNRHPRP | -0.388 |
| RRIRPRPPRLPRPRPRPDGCPRP | -0.228 |
| RRIRTRPPRLPRPRPRPTLYPRP | -0.102 |
| RRIRFRPPRLPRPRPRPYQWPRP | -0.655 |
| RRIRVRPPRLPRPRPRPPCMPRP | -0.0452 |
| RRIRRRPPRLPRPRPRPDYIPRP | -0.339 |
| RRIRWRPPRLPRPRPRPNAHPRP | 0.0415 |
| RRIRPRPPRLPRPRPRPAKPPRP | 0.196 |
| RRIRERPPRLPRPRPRPGLVPRP | -0.061 |
| RRIRRRPPRLPRPRPRPTVYPRP | -0.135 |
| RRIRPRPPRLPRPRPRPESLPRP | -0.0197 |
| RRIRERPPRLPRPRPRPVMHPRP | -0.0979 |
| RRIRKRPPRLPRPRPRPERFPRP | -0.0391 |
| RRIRFRPPRLPRPRPRPYIQPRP | -0.841 |
| RRIRIRPPRLPRPRPRPREKPRP | 0.111 |
| RRIRSRPPRLPRPRPRPNAHPRP | -0.184 |
| RRIRTRPPRLPRPRPRPRPVPRP | 0.407 |

| Sequence | shrunken log2 fold change |
| --- | --- |
| RRIRKRPPRLPRPRPRPCNIPRP | -0.697 |
| RRIRPRPPRLPRPRPRPIKEPRP | -0.00478 |
| RRIRSRPPRLPRPRPRPVLAPRP | 0.557 |
| RRIRLRPPRLPRPRPRPDTHPRP | -0.543 |
| RRIRKRPPRLPRPRPRPWPEPRP | 0.0451 |
| RRIRCRPPRLPRPRPRPMECPRP | -0.00088 |
| RRIRERPPRLPRPRPRPWVNPRP | -0.00303 |
| RRIRERPPRLPRPRPRPQVAPRP | -0.366 |
| RRIRMRPPRLPRPRPRPKPSPRP | 1.4 |
| RRIRVRPPRLPRPRPRPMVTPRP | -0.043 |
| RRIRARPPRLPRPRPRPANIPRP | -0.19 |
| RRIRTRPPRLPRPRPRPSDHPRP | -0.274 |
| RRIRERPPRLPRPRPRPRVYPRP | 0.000497 |
| RRIRWRPPRLPRPRPRPMWYPRP | -0.0539 |
| RRIRPRPPRLPRPRPRPRFLPRP | 0.146 |
| RRIRTRPPRLPRPRPRPNPLPRP | -0.216 |
| RRIRVRPPRLPRPRPRPFYCPRP | -0.605 |
| RRIRPRPPRLPRPRPRPFPVPRP | 0.00381 |
| RRIRMRPPRLPRPRPRPGFTPRP | 0.00309 |
| RRIRTRPPRLPRPRPRPQPLPRP | 0.284 |
| RRIRPRPPRLPRPRPRPTCYPRP | -0.127 |
| RRIRPRPPRLPRPRPRPYRPPRP | -0.257 |

| Sequence | shrunken log2 fold change |
| --- | --- |
| RRIRSRPPRLPRPRPRPIRVPRP | 0.047 |
| RRIRWRPPRLPRPRPRPIFTPRP | -0.173 |
| RRIRCRPPRLPRPRPRPVNHPRP | -0.444 |
| RRIRARPPRLPRPRPRPVWWPRP | 0.987 |
| RRIRQRPPRLPRPRPRPARPPRP | 0.516 |
| RRIRPRPPRLPRPRPRPQDNPRP | -0.548 |
| RRIRIRPPRLPRPRPRPHICPRP | -0.0273 |
| RRIRVRPPRLPRPRPRPKHCPRP | 0.0148 |
| RRIRIRPPRLPRPRPRPWKSPRP | -0.0108 |
| RRIRCRPPRLPRPRPRPADGPRP | -0.129 |
| RRIRVRPPRLPRPRPRPTPEPRP | 0.639 |
| RRIRPRPPRLPRPRPRPPEQPRP | 0.206 |
| RRIRSRPPRLPRPRPRPQFGPRP | 0.0239 |
| RRIRVRPPRLPRPRPRPLQEPRP | 0.298 |
| RRIRGRPPRLPRPRPRPKGWPRP | 1.46 |
| RRIRMRPPRLPRPRPRPAVNPRP | 0.0731 |
| RRIRWRPPRLPRPRPRPFQNPRP | -0.235 |
| RRIRIRPPRLPRPRPRPCNGPRP | -0.0882 |
| RRIRPRPPRLPRPRPRPMSHPRP | 0.0914 |
| RRIRMRPPRLPRPRPRPTSTPRP | 0.16 |
| RRIRIRPPRLPRPRPRPIPPPRP | 0.112 |
